Measured values: PMC8630535

Tests used:
Conditions in all cases: […]) or PBS pH 8.0, 1 mM TCEP ([…]
[1] = tested on: T1, PaaR2 (Escherichia coli O157:H7 EDL933 (CP-933P cryptic prophage)), ORF:dc76e4f2; experiment: EMSA
T1 sequence: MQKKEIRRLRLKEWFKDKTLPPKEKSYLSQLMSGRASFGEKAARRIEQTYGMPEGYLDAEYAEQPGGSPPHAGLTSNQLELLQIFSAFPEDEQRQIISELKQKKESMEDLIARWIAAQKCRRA

[2] = tested on: T2, YdaS (Escherichia coli O157:H7 EDL933 (CP-933P cryptic prophage)), ORF:56fdd3d8; experiment: EMSA
T2 sequence: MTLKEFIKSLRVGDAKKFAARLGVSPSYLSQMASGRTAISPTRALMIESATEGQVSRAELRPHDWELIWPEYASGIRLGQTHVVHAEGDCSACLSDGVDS

[3] = tested on: T1, PaaR2 (Escherichia coli O157:H7 EDL933 (CP-933P cryptic prophage)), ORF:dc76e4f2; experiment: DNase I footprinting
[4] = tested on: T2, YdaS (Escherichia coli O157:H7 EDL933 (CP-933P cryptic prophage)), ORF:56fdd3d8; experiment: DNase I footprinting
[5] = tested on: PaaR2 (Escherichia coli O157:H7 EDL933 (CP-933P cryptic prophage)); experiment: EMSA
[6] = tested on: YdaS (Escherichia coli O157:H7 EDL933 (CP-933P cryptic prophage)); experiment: EMSA

Substance | binding [1] | binding [2] | other results
ACCTTCCTCGGTTTAGTGTTTTTTTGCGAGTTTAGTGTTTAATAAACCATTAAGTCAAGTATTTGCTTGTTTAGTGATTACTAAAGATAATTACCAC (double strand) | > 1 µM | > 1 µM | –
GCTTTTGCGCAGAAATTTCGCGATATGGCAGGACAAGACGTAAAATTGACAGCAATTTTATTCATATAAAGAATGAATCGCAGTCAAGGTATTCATC (double strand) [random intergenic region (Neg)] | no binding | no binding | –
TCTTTAAACCACTCCTTGAGACGTAAACGGCGAATTTCTTTTTTTTGCATGTGGTAATTATCTTTAGTAATCACTAAACAAGCAAATACTTGACTTAATGGTTTATTAAACACTAAACTCGCAAAAAAACACTAAACCGAGGAAGGTATGACATTAAAAGAGTTTATTAAATCATTAAGGGTTGGTGAT (double strand) [footprint fragment, paaR2-ydaS promoter/operator region] | – | – | binding [3]: binds; binding [4]: binds
full-length promoter/operator region, paaR2-ydaS intergenic region (EMSA) | – | – | binding [5]: > 1 µM; binding [6]: > 1 µM
